For assay [1], the target named is H-2K^b (mouse) (UniProt P01901). Description: derived from MFI of 25D-1.16 and anti-H-2K^b staining of Y317-2 cells at 37° C.
Assay [2] concerns the target K^b/OVA257-264 complex on Y317-2 cells (H-2K^b with OVA257-264 linked to human membranal β2m) (mouse; chicken; human). Description: flow cytometry, RMA-S transfectant Y317-2, 37° C. A general note: A flow cytometer gives signals particle by particle.
The target in assay [3] is H-2K^k (mouse) (UniProt P04223). Description: flow cytometry with QIFIKIT, parental MD45 cells.
Assay [4] has the same target. Description: flow cytometry with QIFIKIT, MD45 transfectant 427-24.
Assay [5] shares this target. Description: flow cytometry with QIFIKIT, MD45 transfectant 425-44.
Assay [6] has the same target. Description: derived from QIFIKIT flow cytometry with Fab13.4.1 and AF3-12.1 on 427-24 cells.
Assay [7] deals with Ha255-262 dcβ2m (Ha255-262 - linker - human β2m - bridge - mouse CD3 ζ) (influenza virus; human; mouse) (UniProt P61769). Description: flow cytometry with QIFIKIT, MD45 transfectant 427-24.
In assay [8] the target is hβ2m-CD40 (human β2m fused through a bridge to the mouse CD40 transmembrane and cytoplasmic region) (human; mouse) (UniProt P61769). Description: cell-based or functional assay.
Assay [9] concerns the target NP50-57 dcβ2m (NP50-57 - linker - human β2m - bridge - mouse CD3 ζ) (influenza virus; human; mouse) (UniProt P61769). Description: flow cytometry with QIFIKIT, MD45 transfectant 425-44.
In assay [10] the target is H-2K^b (mouse) (UniProt P01901). Description: flow cytometry, RMA-S transfectant Y317-2, 37° C.
A further assay concerns the target H-2K^d (mouse) (UniProt P01902). Description: cell-based or functional assay.

Experimental findings from US20080286312A1 are described below.

Sequence of UniProt P04223 (P04223 22-369 limits assumed): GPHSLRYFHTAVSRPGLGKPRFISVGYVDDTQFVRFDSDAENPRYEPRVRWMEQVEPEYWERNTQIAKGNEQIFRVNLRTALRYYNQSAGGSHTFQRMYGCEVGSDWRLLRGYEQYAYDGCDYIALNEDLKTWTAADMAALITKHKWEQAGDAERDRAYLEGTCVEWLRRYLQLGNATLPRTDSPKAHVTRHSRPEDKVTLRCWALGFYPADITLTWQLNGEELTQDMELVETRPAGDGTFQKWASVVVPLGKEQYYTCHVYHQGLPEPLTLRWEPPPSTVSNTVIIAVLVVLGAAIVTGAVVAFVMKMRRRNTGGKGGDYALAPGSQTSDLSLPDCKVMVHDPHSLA
Sequence of UniProt P01901 (P01901 22-369 limits assumed): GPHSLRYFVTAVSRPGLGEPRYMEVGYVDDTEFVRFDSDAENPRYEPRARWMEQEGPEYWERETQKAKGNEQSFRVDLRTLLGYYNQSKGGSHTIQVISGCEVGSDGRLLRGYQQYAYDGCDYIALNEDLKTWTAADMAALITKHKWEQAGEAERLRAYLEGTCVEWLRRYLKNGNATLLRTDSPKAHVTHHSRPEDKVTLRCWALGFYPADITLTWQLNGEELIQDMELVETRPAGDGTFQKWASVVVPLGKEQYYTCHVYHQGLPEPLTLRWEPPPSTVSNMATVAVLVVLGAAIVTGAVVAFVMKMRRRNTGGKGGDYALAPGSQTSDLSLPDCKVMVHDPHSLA
Sequence of UniProt P01902 (P01902 22-305 limits assumed): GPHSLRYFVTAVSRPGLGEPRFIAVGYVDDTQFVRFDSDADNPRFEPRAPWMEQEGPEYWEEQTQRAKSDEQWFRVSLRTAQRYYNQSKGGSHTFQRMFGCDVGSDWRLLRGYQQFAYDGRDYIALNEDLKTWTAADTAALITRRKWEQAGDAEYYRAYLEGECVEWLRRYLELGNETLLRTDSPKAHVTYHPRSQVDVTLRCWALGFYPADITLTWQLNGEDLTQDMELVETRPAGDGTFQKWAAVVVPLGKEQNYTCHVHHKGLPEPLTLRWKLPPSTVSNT

For “OVA257-264 dcβ2m with human β2m and H-2K^b anchor (from UniProt P61769 21-119)”, in the assay with H-2K^b (mouse) [1], the H-2K^b occupancy came to 57%.
“25-D1.16 mAb specific to the complex H-2K^b/OVA257-264 (antibody)” returned a mean fluorescence intensity in assay [2] of 69.7 MFI.
On to AF3-12.1 anti-K^k mAb (antibody), for which the quantity of surface antigen (QIFIKIT) with H-2K^k (mouse) [3] worked out at 10900; with H-2K^k (mouse) [4], 28600; with H-2K^k (mouse) [5], 37600.
Regarding “Ha255-262 dcβ2m (Ha255-262 - linker - human β2m - bridge - mouse CD3 ζ) (from UniProt P61769 21-119; P24161 31-164)”, the occupation of surface H-2K^k molecules with H-2K^k (mouse) [6] came to 20%.
Take BM-63 anti-human β2m mAb (antibody): the quantity of surface antigen (QIFIKIT) in assay [7] stood at 173000; in assay [9], 467000. In addition, the decrease of total cellular IκBα (immunoblot) in A20 transfectant in assay [8] stood at 39%.
In turn, 20-8-4 anti-H-2K^b mAb (antibody) showed a mean fluorescence intensity in the assay with H-2K^b (mouse) [10] of 122 MFI.
Substance “hβ2m-CD40 (human β2m fused through a bridge to the mouse CD40 transmembrane and cytoplasmic region) (from UniProt P61769 21-119; P27512 194-289)” had a reduction of total cellular IκBα (immunoblot) in A20 transfectant after incubation with an anti-H-2 K^d mAb with H-2K^d (mouse) of 71%.
